2 proteins from US20230024933 can be followed below.

The target in data set [1] is histone γH2A.X^pY142, endogenous in primary murine fibroblast cultures, P27661.
The target of data set [2] is T1, phosphotyrosine substrate peptide ENDpYINASL.
T1 chain: ENDYINASL

Data set [3] concerns the target T2, phosphoserine substrate peptide RRApSVA.
T2 chain: RRASVA

B1: EYA1 isoform A (human splice variant EYA1A, exon 10 included) (protein)
chain: MLLFPQVAVKTEPMSSSETASTTADGSLNNFSGSAIGSSSFSPRPTHQFSPPQIYPSNRPYPHILPTPSSQTMAAYGQTQFTTGMQQATAYATYPQPGQPYGISSYGALWAGIKTEGGLSQSQSPGQTGFLSYGTSFSTPQPGQAPYSYQMQGSSFTTSSGIYTGNNSLTNSSGFNSSQQDYPSYPSFGQGQYAQYYNSSPYPAHYMTSSNTSPTTPSTNATYQLQEPPSGITSQAVTDPTAEYSTIHSPSTPIKDSDSDRLRRGSDGKSRGRGRRNNNPSPPPDSDLERVFIWDLDETIIVFHSLLTGSYANRYGRDPPTSVSLGLRMEEMIFNLADTHLFFNDLEECDQVHIDDVSSDDNGQDLSTYNFGTDGFPAAATSANLCLATGVRGGVDWMRKLAFRYRRVKEIYNTYKNNVGGLLGPAKREAWLQLRAEIEALTDSWLTLALKALSLIHSRTNCVNILVTTTQLIPALAKVLLYGLGIVFPIENIYSATKIGKESCFERIIQRFGRKVVYVVIGDGVEEEQGAKKHAMPFWRISSHSDLMALHHALELEYL
Turning to B1, the “γH2A.X^pY142 foci per nucleus after NCS exposure” value in data set [1] is “EYA1A overexpression induced premature γH2A.X^pY142 dephosphorylation and clearance of DSBs”. Also, the “tyrosine phosphatase activity (dephosphorylation assay with phosphorylated peptide)” value in data set [2] was “confirmed increased tyrosine phosphatase activity of EYA1A”.

B2: mutant EYA1A in which exon 10 had been removed (EYA1AΔe10) (protein)
chain: MLLFPQVAVKTEPMSSSETASTTADGSLNNFSGSAIGSSSFSPRPTHQFSPPQIYPSNRPYPHILPTPSSQTMAAYGQTQFTTGMQQATAYATYPQPGQPYGISSYGALWAGIKTEGGLSQSQSPGQTGFLSYGTSFSTPQPGQAPYSYQMQGSSFTTSSGIYTGNNSLTNSSGFNSSQQDYPSYPSFGQGQYAQYYNSSPYPAHYMTSSNTSPTTPSTNATYQLQEPPSGITSQAVTDPTAEYSTIHSPSTPIKDSDSDRLRRGSDGKSRGRGRRNNNPSPPPDSDLERVFIWDLDETIIVFHSLLTGSYANRYGRECDQVHIDDVSSDDNGQDLSTYNFGTDGFPAAATSANLCLATGVRGGVDWMRKLAFRYRRVKEIYNTYKNNVGGLLGPAKREAWLQLRAEIEALTDSWLTLALKALSLIHSRTNCVNILVTTTQLIPALAKVLLYGLGIVFPIENIYSATKIGKESCFERIIQRFGRKVVYVVIGDGVEEEQGAKKHAMPFWRISSHSDLMALHHALELEYL
With B2, the “γH2A.X^pY142 foci per nucleus after NCS exposure” value in data set [1] is “deletion of EYA1A critical exon 10 (EYA146e10) normalized premature γH2A.X^pY142 dephosphorylation and γH2A.X clearance”. For the same protein, the “serine phosphatase activity (dephosphorylation assay)” value in data set [3] is given as “dephosphorylation assays using the synthetic serine phosphatase substrate RRApSVA demonstrated superior serine phosphatase activity”.
